Test results taken from the supplement of paper PMC9112550, “Optimization of the antimicrobial peptide Bac7 by deep mutational scanning” (BMC Biology, 2022).

Test system: Escherichia coli TOP10
Assay: shrunken log2 fold change of peptide-encoding DNA abundance (4.5 h post-induction vs induction); higher = less antimicrobial activity (less host growth inhibition)
Settings: time post-induction: 4.5 h; library: site-saturation at positions 5, 18, 19, 20
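Note: peptides expressed intracellularly from a pBAD plasmid library in pooled LB shake-flask culture, induced with 0.3% L-arabinose, DNA abundance read by NGS, three biological replicates, DESeq2 with apeglm shrinkage.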

Sequence | shrunken log2 fold change
RRIRHRPPRLPRPRPRPMFLPRP | -0.797
RRIRMRPPRLPRPRPRPEKPPRP | 1.34
RRIRHRPPRLPRPRPRPTWAPRP | 0.303
RRIRHRPPRLPRPRPRPYRIPRP | -0.231
RRIRVRPPRLPRPRPRPAKIPRP | 0.117
RRIRRRPPRLPRPRPRPMPVPRP | 0.388
RRIRTRPPRLPRPRPRPIPDPRP | -0.32
RRIRMRPPRLPRPRPRPSNGPRP | -0.0373
RRIRDRPPRLPRPRPRPYSQPRP | -0.0305
RRIRQRPPRLPRPRPRPTKCPRP | 0.0325
RRIRVRPPRLPRPRPRPAFGPRP | 0.18
RRIRTRPPRLPRPRPRPTWGPRP | 0.31
RRIRKRPPRLPRPRPRPCEAPRP | 0.277
RRIRTRPPRLPRPRPRPMLKPRP | -0.106
RRIRNRPPRLPRPRPRPDPVPRP | -0.137
RRIRGRPPRLPRPRPRPWPYPRP | -0.265
RRIRDRPPRLPRPRPRPFFLPRP | -0.261
RRIRVRPPRLPRPRPRPQCTPRP | -0.149
RRIRQRPPRLPRPRPRPYFGPRP | -0.305
RRIRWRPPRLPRPRPRPLGDPRP | 0.598
RRIRWRPPRLPRPRPRPLCTPRP | 0.106
RRIRKRPPRLPRPRPRPACAPRP | 1

Sequence | shrunken log2 fold change
RRIRLRPPRLPRPRPRPGEIPRP | -0.141
RRIRARPPRLPRPRPRPLATPRP | 0.647
RRIRQRPPRLPRPRPRPQRGPRP | 0.235
RRIRPRPPRLPRPRPRPEKYPRP | -0.562
RRIRIRPPRLPRPRPRPYGSPRP | -0.126
RRIRMRPPRLPRPRPRPTKIPRP | 0.318
RRIRKRPPRLPRPRPRPCRSPRP | -0.0126
RRIRMRPPRLPRPRPRPWPHPRP | 0.512
RRIRIRPPRLPRPRPRPWIKPRP | -0.0222
RRIRQRPPRLPRPRPRPPHRPRP | 0.445
RRIRCRPPRLPRPRPRPAWHPRP | 0.182
RRIRCRPPRLPRPRPRPERMPRP | -0.015
RRIRYRPPRLPRPRPRPGIFPRP | -0.708
RRIRARPPRLPRPRPRPGKKPRP | -0.133
RRIRRRPPRLPRPRPRPELCPRP | 0.101
RRIRYRPPRLPRPRPRPQQSPRP | -0.454
RRIRGRPPRLPRPRPRPIEFPRP | 0.0349
RRIRVRPPRLPRPRPRPDTIPRP | -0.00658
RRIRSRPPRLPRPRPRPYNGPRP | -0.0342
RRIRLRPPRLPRPRPRPWVEPRP | -0.186
RRIRRRPPRLPRPRPRPGVTPRP | 0.303
RRIRHRPPRLPRPRPRPTFQPRP | -0.067

Sequence | shrunken log2 fold change
RRIRARPPRLPRPRPRPILFPRP | -0.166
RRIRLRPPRLPRPRPRPWMWPRP | 0.154
RRIRIRPPRLPRPRPRPDRMPRP | -0.0164
RRIRPRPPRLPRPRPRPAAYPRP | 0.0551
RRIRHRPPRLPRPRPRPDQKPRP | 0.0292
RRIRNRPPRLPRPRPRPPGRPRP | 0.769
RRIRVRPPRLPRPRPRPNIYPRP | -0.25
RRIRSRPPRLPRPRPRPEAPPRP | 0.67
RRIRCRPPRLPRPRPRPCPEPRP | 1.16
RRIRARPPRLPRPRPRPCAVPRP | 0.365
RRIRCRPPRLPRPRPRPKHFPRP | -0.209
RRIRRRPPRLPRPRPRPLLRPRP | 0.44
RRIRQRPPRLPRPRPRPMRLPRP | 0.0296
RRIRTRPPRLPRPRPRPTGNPRP | -0.445
RRIRTRPPRLPRPRPRPLSLPRP | -0.613
RRIRCRPPRLPRPRPRPLYQPRP | -0.543
RRIRLRPPRLPRPRPRPEDVPRP | -0.0818
RRIRTRPPRLPRPRPRPPMMPRP | -0.121
RRIRKRPPRLPRPRPRPEYLPRP | -0.0659
RRIRVRPPRLPRPRPRPTLVPRP | 0.0318
RRIRVRPPRLPRPRPRPEPFPRP | 0.0811
RRIRQRPPRLPRPRPRPHFIPRP | -0.328

Sequence | shrunken log2 fold change
RRIRQRPPRLPRPRPRPMLTPRP | -0.185
RRIRKRPPRLPRPRPRPEEKPRP | 0.0431
RRIRGRPPRLPRPRPRPPCLPRP | 0.503
RRIRSRPPRLPRPRPRPWFKPRP | -0.504
RRIRIRPPRLPRPRPRPQHFPRP | -0.109
RRIRHRPPRLPRPRPRPSLAPRP | -0.219
RRIRYRPPRLPRPRPRPMVWPRP | -0.0211
RRIRWRPPRLPRPRPRPHVYPRP | -0.132
RRIRFRPPRLPRPRPRPWFPPRP | -0.0773
RRIRQRPPRLPRPRPRPVLDPRP | 0.0663
RRIRGRPPRLPRPRPRPDYWPRP | -0.027
RRIRGRPPRLPRPRPRPCYSPRP | -0.0391
RRIRYRPPRLPRPRPRPVQTPRP | -0.00992
RRIRRRPPRLPRPRPRPRGVPRP | 0.816
RRIRLRPPRLPRPRPRPVKHPRP | -0.131
RRIRSRPPRLPRPRPRPTAHPRP | 0.284
RRIRCRPPRLPRPRPRPSWQPRP | -0.0872
RRIRWRPPRLPRPRPRPKPYPRP | 3.05
RRIRTRPPRLPRPRPRPTIGPRP | -0.000966
RRIRRRPPRLPRPRPRPHEPPRP | -0.0636
RRIRARPPRLPRPRPRPLFMPRP | -0.166
RRIRYRPPRLPRPRPRPEVMPRP | 0.00902

Sequence | shrunken log2 fold change
RRIRHRPPRLPRPRPRPCRPPRP | 0.0355
RRIRKRPPRLPRPRPRPWQLPRP | -0.00277
RRIRTRPPRLPRPRPRPRLWPRP | 0.154
RRIRPRPPRLPRPRPRPDEDPRP | 0.00574
RRIRARPPRLPRPRPRPQKTPRP | 0.0194
RRIRSRPPRLPRPRPRPVHFPRP | 0.0527
RRIRGRPPRLPRPRPRPSSGPRP | 0.0321
RRIRIRPPRLPRPRPRPMLGPRP | -0.146
RRIRNRPPRLPRPRPRPRLRPRP | 0.0785
RRIRARPPRLPRPRPRPWVFPRP | 0.276
RRIRIRPPRLPRPRPRPIGCPRP | -0.00783
RRIRHRPPRLPRPRPRPHCCPRP | -0.156
RRIRGRPPRLPRPRPRPVHQPRP | 0.228
RRIRYRPPRLPRPRPRPPCQPRP | -0.212
RRIRTRPPRLPRPRPRPHMGPRP | -0.00538
RRIRKRPPRLPRPRPRPMHTPRP | 0.192
RRIRRRPPRLPRPRPRPIGMPRP | -0.0232
RRIRERPPRLPRPRPRPISEPRP | -0.0562
RRIRARPPRLPRPRPRPKEDPRP | 0.133
RRIRFRPPRLPRPRPRPWTWPRP | 0.0306
RRIRTRPPRLPRPRPRPKSRPRP | -0.0444
